Source: publication PMC7347513 (Cancer Immunology, Immunotherapy : CII, 2020)

Columns and labels:
[1] = molecular target: T1, HLA A*2402 presenting HCMV pp65 peptide … on cells (Homo sapiens HLA-A*24:02/B2M; HCMV pp65 …, strain); test: flow cytometry on cells; conditions: one partner purified
T1 construct: copies: + +

[2] = molecular target: T2, biotinylated HLA A*2402/HCMV pp65 peptide … complex (Homo sapiens HLA-A*24:02/B2M; HCMV pp65 …, strain, biotin (in vivo, BirA, AviTag)); test: ELISA; conditions: both partners purified
T2 construct: copies: + +

[3] = molecular target: T3, HLA B*3501 presenting HCMV pp65 peptide … on cells (Homo sapiens HLA-B*35:01 and B2M on …, strain); test: flow cytometry on cells; conditions: one partner purified
T3 construct: copies: + +

[4] = molecular target: T4, biotinylated HLA B*0801/HCMV IE1 peptide … complex (Homo sapiens HLA-B*08:01 and B2M; HCMV …, strain, biotin (in vivo, BirA, AviTag)); test: ELISA; conditions: both partners purified
T4 construct: copies: + +

B1: biotinylated Fab C12.2 (Fab, V domains shown)
VH: QITLKESGPTLVKPTQTLTLTCTFSGFSLSTSGVAVGWIRQPPGKALEWLALIYWDDDKHYSPSLKNRLTITKDTSKNQVVLTLTNMDPVDTATYYCARMTYSGSWYSFYYFDYWGQGTLVTVSS
VL: EIVLTQSPATLSFSPGERATLSCRASQSVGSYLAWYQQRPGQAPRPLIYDATNRATGIPTRFSGSGSGTDFTLTISSLEPEDFATYYCQHRRTFGRGTKLEIK
notes: source: E. coli TG1, biotinylated in vivo, purified (IMAC, Talon beads)
binding result [1]: binds

B2: Fab C12/2 (Fab, V domains shown)
VH: B1 VH
VL: B1 VL
binding result [2]: binds

B3: biotinylated Fab C5 (Fab, V domains shown)
VH: EVQLVQSGAEVKRPGASVKVSCKASGYTFTNYDINWVRQATGQGLEWMGWMNPNSGNTGYAQKFQGRVTITADKSTSTAYMELSSLRSEDTAVYYCARQGRLRFLEWYMFDPWGQGTLVTVSS
VL: DVVMTQSPLSLPVTPGEPASISCRSSQSLLHSNGYNYLDWYLQKPGQSPQLLIYLGSIRASGVPDRVTGSGSGTDFTLQISRVEAEDVGVYYCMQGLQTPYTFGQGTKLEIK
notes: as for B1
binding result [3]: binds

B4: Fab 2A2 (Fab, V domains shown)
VH: QVQLVQSGAEVKKPGASVKVSCKASGYTFTDYYVHWVRQAPGQGLEWMGRINPNSGGTNYAQKFQGRVTMTRDASISTAYMELSRLRSDDTAVYYCAREMGYGGKSEDYWGQGTLVTVSS
VL: SYVLTQPPSLSVAPGKTARIICGGNNIGSKSVHWYQQKPGQPPVLVVHDDGDRPSGIPERFSGSNSGITATLTITGVEAGDEADYYCQVWDYSSDHVIFGGGTKLTVL
notes: source: E. coli TG1, purified (IMAC, Talon beads)
binding result [4]: binds
